According to US20080233097A1, “Phosphorylation Site Of Mitogen-Activated Protein Kinases, Modified Proteins And Applications” (UNIVERSIDAD AUTONOMA DE MADRID, priority 2005, published 2008):
Residue numbers refer to the chain shown, from its start. Numbers in names are those of the source.

How the values were obtained:
[1] = test system: β2-adrenergic (β2-AR) receptor; test: isoproterenol stimulation of HEK 293 cells with β2-AR, Flag-p38α and GRK2 (co-immunoprecipitation, anti-phospho-p38); type: cell-based, human
Procedure: 48 hours after the transfection and after a 2 hour serum starvation, the cells were stimulated with the adrenergic agonist isoproterenol (ISO, 10 μM) for 5 or 10 minutes or they were not stimulated (0 min ISO). Likewise, cells without overexpressed β2-AR receptor were stimulated with 0.5 M NaCl for 15 minutes. The cells were solubilized in a buffer suitable for immunoprecipitation with the M2 anti-Flag antibody bound to agarose and after taking aliquots of these lysates (10%) for overexpression control (lysate panels) the immune complexes were incubated overnight at 4° C. The immunoprecipitated proteins (Ip anti-Flag) were resuspended in an electrophoresis breaking buffer and the bound proteins were resolved in a 10% SDS-polyacrylamide gel. […] The negative immunoprecipitation controls (Cneg) in the absence of Flag-p38α and of stimulation with 10 μM isoproterenol are also included in the figure. […] As described in A, non-specific immunoprecipitation controls (Cneg) of the M2 anti-Flag-agarose antibody were carried out.
In the GRK2 and Flag-p38α association experiments, a 1:1:1 ratio of GRK2 (or GRK2-K220R), Flag-p38α, and β2-adrenergic receptor was used (generally 1 μg of each per p60).
The stimulation of HEK293 cells with 10 μM isoproterenol (Sigma) was carried out at 37° C. in culture medium without serum. […]

GRK2 = biological target: T1, GRK2 (Bos taurus, UniProt P21146); test: phosphorylation of p38 mutants and truncated proteins by GRK2 in vitro; type: biochemical; conditions: GST fusion proteins, 30 minutes at 30° C.
T1 construct: made in house; host or cells: Sf9 cells (baculovirus)
T1 sequence (P21146 1-689): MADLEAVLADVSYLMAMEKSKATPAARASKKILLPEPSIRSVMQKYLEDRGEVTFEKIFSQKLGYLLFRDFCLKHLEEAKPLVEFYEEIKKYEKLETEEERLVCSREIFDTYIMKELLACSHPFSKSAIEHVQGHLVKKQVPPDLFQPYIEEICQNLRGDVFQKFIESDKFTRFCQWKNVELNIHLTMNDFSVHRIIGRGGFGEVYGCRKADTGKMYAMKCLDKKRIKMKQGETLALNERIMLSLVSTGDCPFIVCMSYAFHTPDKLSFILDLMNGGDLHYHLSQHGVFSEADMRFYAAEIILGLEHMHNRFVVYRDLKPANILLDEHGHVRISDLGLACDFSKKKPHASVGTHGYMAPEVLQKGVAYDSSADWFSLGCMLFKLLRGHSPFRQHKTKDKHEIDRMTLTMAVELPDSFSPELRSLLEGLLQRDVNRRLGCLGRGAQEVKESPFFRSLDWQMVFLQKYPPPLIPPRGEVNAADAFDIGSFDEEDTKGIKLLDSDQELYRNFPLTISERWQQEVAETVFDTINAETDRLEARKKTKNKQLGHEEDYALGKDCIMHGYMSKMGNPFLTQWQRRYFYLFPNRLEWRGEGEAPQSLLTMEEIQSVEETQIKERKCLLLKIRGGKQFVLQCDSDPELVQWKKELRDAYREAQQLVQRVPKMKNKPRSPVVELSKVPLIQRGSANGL
Procedure: FIG. 6A: Proteins fused to GST (black rectangle in the protein schemes) were purified from bacteria transformed with the plasmids pGEX2T-p38α, pGEX4T-Mxi2 and pGEX4T-Mxi2Δ17: p38α, Mxi2 and Mxi2Δ17. The […] isoforms used as C-terminal truncated mutants for trying to limit the GRK2 phosphorylation site. […] Heparin (150 nM) was included as a specific GRK2 inhibitor. The reactions were stopped by adding SDS breaking buffer. The samples were resolved in 8% SDS-PAGE. For the purpose of assuring the inclusion of identical amounts of protein, they were first visualized in the gel by Coomassie Brilliant Blue (CBB) staining. Then the gel was dried and the radioactivity incorporated to the proteins (^32P) was detected. FIG. 6B: The truncated GST-280-360p38 protein, corresponding to the last 80 p38α amino acids, was generated by means of the Invitrogen Gateway system. Phosphorylation assays were carried out with Mxi2Δ17 as a p38 N-terminal, 280-360 p38 as C-terminal and with whole p38α in the same conditions as described in section A. The phosphorylation was detected by autoradiography (^32P) and controls of the amount of protein used in the assays were carried out concomitantly by Western blot with the anti-GST antibody. The presence of the GST-280-360p38 protein, which is not phosphorylated, is clearly observed. STD, mobility of standard molecular weight proteins.
FIG. 9A: p38T123A and p38T123D proteins, fused to GST, were made by directed mutagenesis in the prokaryotic expression plasmids pGEX2T. The ability of the recombinant GST-p38T123A and GST-p38T123D proteins to be GRK2 substrates in comparison to the wild GST-p38WT protein and at the final concentrations indicated in the Figure was assayed. The upper panels represent the obtained phosphorylation (32 P) and the lower panels show, by anti-p38N WB, the amount of recombinant protein used in the assays. […]
Heparin (150 nM) was included as a specific GRK2 inhibitor. […] Subsequently, the gel was dried and the radioactivity incorporated to the proteins (^32P) was detected. […]

3T3-L1 cells = test: adipocyte differentiation of 3T3-L1 (Oil Red staining, adipocyte count); type: cell-based; conditions: 3T3L1 lines stably transfected, day 15
Description: 3T3L1 lines stably transfected with pCDNA3-GRK2 and pCDNA3-GRK2K220R were made. GRK2 (anti-GRK2) expression controls obtained in cell lines, compared to 3T3L1 levels, are included. The cells were subjected to a standard differentiation treatment and on day 15 of the latter, the cells were fixed with formalin and stained with Oil Red, a lipophilic coloring which binds to the fats accumulated by the adipocytes. The cells with adipocytic phenotype (in red) were counted under microscope in a total of 25 fields. Representative photographs of two independent experiments are shown in duplicate. A photo of the 3T3L1 cells, free of stimulation with insulin during the differentiation process (control), is also included. The graph reflects the adipocyte count (±SEM) in these experiments.
The cell culture was carried out with 10% DMEM medium of NCS serum. However, the entire differentiation process which is described below must be performed in depleted AXC serum (ion exchange resin) by means of successive adsorptions of fetal calf serum on an anion exchange resin and on active carbon. AXC serum was provided by the kitchen service of the Instituto of Investigaciones Biomédicas (Biomedical Research Institute). The cells are grown until their confluence and are plated (5×10^5 in P-100) in DMEM-10% AXC medium, supplemented with 4 μM of biotin (Sigma). The following day, the medium is replaced with fresh medium. The cells are grown another three days, until confluence is reached again, that day is called day “0”. On day 0 of differentiation, the cells are cultured in a medium containing: 0.5 μM dexamethasone (Sigma), 0.5 mM 3-isobutyl-1-methylxanthine (IMBX, of Sigma) and 1 μM insulin (Sigma) and in which they will remain for another three days. […] From day 6 to day 15, the adipogenesis was analyzed by staining with Oil Red, a red coloring of lipophilic constitution which binds to the drops of fat accumulated by the adipocytes in their cytoplasm. […] The cells are counted in a total of 25 fields per each experimental plate.

For `CC(C)NCC(O)c1ccc(O)c(O)c1` (centres unmarked) [isoproterenol], the “p38 activation (anti-phospho-p38)” value ([1]; 10 μM) was “not very strong” and the “association between GRK2 and p38 (co-immunoprecipitation)” value ([1]; 10 μM, 0, 5 or 10 minutes) was “maximum association is obtained five minutes after exposure”.

B1: GST-280-360 p38α: truncated protein corresponding to the last 80 amino acids of p38α, fused to GST (protein)
chain: AVDLLEKMLVLDSDKRITAAQALAHAYFAQYHDPDDEPVADPYDQSFESRDLLIDEWKSLTYDEVISFVPPPLDQEEMES
modifications: left off: a dimerising Fc or GST
notes: truncated protein corresponding to the last 80 amino acids of p38α, fused to GST
For B1, the “ability to be a GRK2 substrate (32P incorporation)” value (GRK2) was “no trace whatsoever of phosphorylation”.

B2: purified MKK6 (recombinant MKK6CAM, Upstate Biotech) (protein)
chain: MSQSKGKKRNPGLKIPKEAFEQPQTSSTPPRDLDSKACISIGNQNFEVKADDLEPIMELGRGAYGVVEKMRHVPSGQIMAVKRIRATVNSQEQKRLLMDLDISMRTVDCPFTVTFYGALFREGDVWICMELMDTSLDKFYKQVIDKGQTIPEDILGKIAVSIVKALEHLHSKLSVIHRDVKPSNVLINALGQVKMCDFGISGYLVDEVAKEIDAGCKPYMAPERINPELNQKGYSVKSDIWSLGITMIELAILRFPYDSWGTPFQQLKQVVEEPSPQLPADKFSAEFVDFTSQCLKKNSKERPTYPELMQHPFFTLHESKGTDVASFVKLILGD
With B2 the “phosphorylation by MKK6CAM (32P incorporation)” value (GST-p38T123D) was “GST-p38T123D is a much worse MKK6CAM substrate than the other two p38”.

B3: K220R: catalytically inactive GRK2-K220R mutant (protein)
chain: T1 sequence (P21146 1-689) with K220R
In the case of B3, the “acquisition of the adipocytic morphology mediated by insulin” value (3T3-L1 cells) is reported as “stimulates it”.
